Test results taken from article PMC3699067.

Target: T1, DJ-1 (human (endogenous in HEK293T)), Q99497
T1 chain: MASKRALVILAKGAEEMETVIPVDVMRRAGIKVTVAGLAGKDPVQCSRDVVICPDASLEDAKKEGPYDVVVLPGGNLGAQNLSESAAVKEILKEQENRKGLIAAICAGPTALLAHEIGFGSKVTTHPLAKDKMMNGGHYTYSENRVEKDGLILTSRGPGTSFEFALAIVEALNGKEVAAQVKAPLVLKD
Assay: cross-linking
Settings: remark: other sources report otherwise

stoichiometry N: 2
B1: DJ-1, Q99497 1-189 (natural protein)
chain: MASKRALVILAKGAEEMETVIPVDVMRRAGIKVTVAGLAGKDPVQCSRDVVICPDASLEDAKKEGPYDVVVLPGGNLGAQNLSESAAVKEILKEQENRKGLIAAICAGPTALLAHEIGFGSKVTTHPLAKDKMMNGGHYTYSENRVEKDGLILTSRGPGTSFEFALAIVEALNGKEVAAQVKAPLVLKD
